Laboratory results from paper PMC6108936 (Cell, 2018).

Biological target: the molecule itself
Assay: cryo-EM structure

B1: Cps25 (natural protein, Saccharomyces cerevisiae, UniProt Q03323 1-175, looked up)
chain: MNESENSPQHNEVTVPMVEDTSSNADIPMEQIQREDNKNYDKHDNECFDMNGNHNNNSDNLQFDSVPSSATKDLKNIKSVTNQNVKIEESSSTNSVIEESSEPKISKLENVNLAATVGGSQTRKYLNTNVTPHLLAGMRLIAVQQPEDPLRVLGEYLIEQSNILKSGEKESNASK
binding result: binds
